34 substances from the supplement of paper PMC10598134 can be followed below.

This data set is described as follows: collision cross section of unmodified peptide (TIMS, N2, iRT-aligned); higher = larger / more extended gas-phase ion. The essentials:
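Values are averages of 1–3 technical replicates of the most abundant feature for each charge state. Collision cross section was obtained from the Mason-Schamp equation after 1/K0 calibration with three reference ions and run-wise alignment to the median iRT peptide deviation. Synthetic peptide pools (iRT standard spiked 1:40) were separated on a 120-min nanoflow C18 gradient at 60 °C, analysed on a timsTOF Pro/HT (dda-PASEF, nitrogen, ~2.4 mbar) and identified with MaxQuant.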

± gives the standard deviation.

For FGTINIVHPKLGSYTK, the collision cross section came out at 468.97 ± 3 Å² (charge state: 2) and 531.6 ± 4.8 Å² (charge state: 3).
TGPPGSTGSR yielded a collision cross section (charge state: 2) of 307.73 ± 0.78 Å².
As to SGGRGVSVSSAR, the collision cross section runs as follows: (charge state: 2) 352.78 ± 0.057 Å²; (charge state: 3) 442.14 ± 3.7 Å².
Taken in the same sequence, the figures for ANLEKAQAELVGTADEATR were 474.85 ± 3.3 Å² and 519.38 ± 2.8 Å².
Consider GLATFPSRGAK, for which the collision cross section is reported as 368.08 ± 0.52 Å² (charge state: 2) and 445.97 ± 5.5 Å² (charge state: 3).
Taken in the same sequence, the figures for LGNDFHTNKR were 369.4 ± 1.5 Å² and 431.93 ± 3.7 Å².
The like results for GSGLGARGSSYGVTSTESYK were, in that order, 471.67 Å² and 515.78 ± 1.1 Å².
Substance YEITEQR showed a collision cross section (charge state: 2) of 326.96 ± 0.72 Å².
Take ITASLCDLKSR: the collision cross section is, setting by setting: (charge state: 2) 397.44 ± 4.9 Å²; (charge state: 3) 460.65 ± 3.9 Å².
Taken in the same sequence, the figures for LAEEENKAK were 348.48 ± 1.2 Å² and 421.19 ± 4.7 Å².
Taken in the same sequence, the figures for TPNLYIYSKK were 381.12 ± 1.4 Å² and 430.18 ± 4.5 Å².
Take APEYLHR: where the note is “charge state: 2”, the collision cross section is listed as 313.96 ± 0.73 Å².
For the setting “charge state: 2”, VQFAPEK came in with a collision cross section of 317.04 ± 1.1 Å².
Same read-out and setting: next, EGFSIPVSADGFK: 384.97 ± 0.14 Å².
For YTAQVDAEEK, the collision cross section (charge state: 2) came out at 355.03 ± 0.55 Å².
Where the note is “charge state: 2”, SGFGKFER gave a collision cross section of 339.56 ± 3 Å².
As to LSEHATAPTR, the collision cross section is 353.05 ± 0.78 Å² (charge state: 2) and 452.29 ± 0.22 Å² (charge state: 3).
IGSLDNITHVPGGGNK gave a collision cross section (charge state: 3) of 470.46 ± 1.9 Å².
For GERGVPGER, the collision cross section reads like this: (charge state: 2) 324.16 ± 0.79 Å²; (charge state: 3) 410.66 ± 1.3 Å².
For AQSYAQQLGR, the collision cross section (charge state: 2) is given as 352.59 ± 0.74 Å².
Turning to YLHDESGLNR, the collision cross section was 361.42 ± 0.55 Å² (charge state: 2) and 447.46 ± 1.1 Å² (charge state: 3).
Taken in the same sequence, the figures for VGLQVVAVKAPGFGDNR were 462.44 ± 2.5 Å² and 487.54 ± 2.5 Å².
The like results for GAPGGRGAQLSVPSPAR were, in that order, 428.52 Å² and 492.17 ± 0.93 Å².
The like results for PRTPTAPAVNLAGAR were, in that order, 406.96 ± 1.8 Å² and 484.37 ± 1.2 Å².
For the substance TQDQISNIKYHEEFEK, the collision cross section is, setting by setting: (charge state: 2) 459.39 Å²; (charge state: 3) 550.5 ± 0.31 Å².
For RLPTTGYLVYR, the collision cross section reads like this: (charge state: 2) 389.8 ± 0.35 Å²; (charge state: 3) 475.19 ± 2.9 Å².
Take FGVEAFSDCLR: where the note is “charge state: 2”, the collision cross section was 384.72 ± 0.67 Å².
Consider EVVKPVPITSPAVSK, for which the collision cross section (charge state: 2) came out at 412.92 ± 0.57 Å² and the collision cross section (charge state: 3) is on record as 534.95 ± 0.86 Å².
Taken in the same sequence, the figures for RGFGFGGFAISAGK were 395.08 ± 0.89 Å² and 486.34 ± 2.6 Å².
HSPTLPEPGGLRLELPLSR displayed a collision cross section (charge state: 3) of 583.19 Å².
Turning to RLPNVHGR, the collision cross section is, setting by setting: (charge state: 2) 332.52 ± 0.039 Å²; (charge state: 3) 419.7 ± 5.1 Å².
Regarding LSITGTYDLK, the collision cross section (charge state: 2) amounted to 371.61 ± 0.6 Å².
The same measure, in the same setting: next, DYSVTANSK: 329.32 ± 0.58 Å²; LDLSSLAYSGK: 363.06 ± 1.2 Å².
